Consider 22 molecules from PMC10786891, “Massively parallel profiling of RNA-targeting CRISPR-Cas13d”.

For series [1], the target named is T1, EsCas13d, nuclease-dead (Eubacterium siraeum, UniProt B0MS50, R295A;H300A;R849A;H854A).
T1 sequence: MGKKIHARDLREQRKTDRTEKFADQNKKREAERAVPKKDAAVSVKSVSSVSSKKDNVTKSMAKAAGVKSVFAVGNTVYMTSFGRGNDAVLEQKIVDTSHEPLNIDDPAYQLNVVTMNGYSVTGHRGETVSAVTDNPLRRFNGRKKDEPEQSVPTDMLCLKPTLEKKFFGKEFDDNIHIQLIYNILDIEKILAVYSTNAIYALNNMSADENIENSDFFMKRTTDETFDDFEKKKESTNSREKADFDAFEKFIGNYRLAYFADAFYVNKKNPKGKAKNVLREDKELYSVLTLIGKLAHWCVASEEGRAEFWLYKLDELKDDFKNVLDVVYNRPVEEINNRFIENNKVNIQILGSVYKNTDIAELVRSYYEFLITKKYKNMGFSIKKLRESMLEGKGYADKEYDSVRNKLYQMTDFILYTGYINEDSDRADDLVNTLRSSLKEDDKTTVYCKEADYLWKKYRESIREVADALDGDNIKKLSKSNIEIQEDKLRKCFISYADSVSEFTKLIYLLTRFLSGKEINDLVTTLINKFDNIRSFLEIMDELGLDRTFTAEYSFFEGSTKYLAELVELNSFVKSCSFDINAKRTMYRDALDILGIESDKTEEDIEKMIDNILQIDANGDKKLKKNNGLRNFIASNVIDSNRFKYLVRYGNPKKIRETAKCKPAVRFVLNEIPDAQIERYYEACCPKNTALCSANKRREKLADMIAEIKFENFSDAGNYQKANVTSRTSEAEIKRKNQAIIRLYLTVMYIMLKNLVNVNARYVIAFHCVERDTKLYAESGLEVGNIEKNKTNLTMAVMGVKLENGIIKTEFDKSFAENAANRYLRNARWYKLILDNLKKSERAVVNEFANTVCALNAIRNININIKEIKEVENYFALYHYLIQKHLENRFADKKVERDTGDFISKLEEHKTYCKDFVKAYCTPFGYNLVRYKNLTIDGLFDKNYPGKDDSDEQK
Kind of series: BLI; crRNA (strand 1, pre-loaded); Mg2+; 40 mM Tris-HCl pH 7.5, 150 mM NaCl, 6 mM MgCl2, 1 mM DTT, 0.1% Tween-20, 0.2 mg/ml BSA; temperature not stated. Particulars: tags: His6-TwinStrep-SUMO cleaved; label: 3' biotin on strand 2.

The target in series [2] is T1, EsCas13d, nuclease-dead. Described as above. The conditions noted are these: tags: His6-TwinStrep-SUMO cleaved; label: 3' biotin on strand 2. The source holds these as a separate data set.
Series [3] addresses T1, EsCas13d, nuclease-dead. Kind of series: crRNA (strand 1, pre-loaded); Mg2+; 40 mM Tris-HCl pH 7.5, 150 mM NaCl, 6 mM MgCl2, 1 mM DTT, 0.1% Tween-20, 0.2 mg/ml BSA; 25 C; 10 min per concentration, then washed. The conditions noted are these: tags: His6-TwinStrep-SUMO cleaved; N-terminal SNAP kept (SNAP-Surface 488); label: 3' end held by stalled T7 RNA polymerase.

B1: crRNA-2 (MT) target (mixed)
RNA 1: CACCCGUGCAAAAUUGCAGGGGUCUAAAACCUUGAAGUUUUCCAAGUGCACU
RNA 2: UCCACAGCAAGUGCACUUGGAAAACUUCAAGAUGUGGUCA
Broadly, the Kd is a measure of binding affinity in units of concentration. A higher Kd goes with lower affinity. The molecule B1 registered a Kd with EsCas13d, nuclease-dead [1] of 3 nM. That is a single-digit nanomolar value.

B2: target 1 MT (60-mer) (mixed)
RNA 1: CACCCGUGCAAAAAUGCAGGGGUCUAAAACUGAGCGGAUAACCUCUCUAUGG
RNA 2: CCACAUCUACGAAUUCGUACCAUAGAGAGGUUAUCCGCUCACCGAGAUCGGAAGAGCACA
Usually koff stands for the first-order rate constant of dissociation. As usually defined, the kon is the rate constant with which the complex forms. In the series with EsCas13d, nuclease-dead [2], B2 displayed a koff of 0.00052 s⁻¹ and a kon of 170000 M⁻¹ s⁻¹.

B3: target 1 C2G (60-mer) (mixed)
RNA 1: CACCCGUGCAAAAAUGCAGGGGUCUAAAACUGAGCGGAUAACCUCUCUAUGG
RNA 2: CCACAUCUACGAAUUCGUACCAUAGAGAGGUUAUCCGCUGACCGAGAUCGGAAGAGCACA
In the series with EsCas13d, nuclease-dead [2], B3 registered a koff of 0.0004 s⁻¹ and a kon of 200000 M⁻¹ s⁻¹. Moreover, binding with EsCas13d, nuclease-dead [1] was characterised by a dissociation constant (Kd) of 2 nM.

B4: target 1 MT 5'PFS GCU 3'PFS UAG (mixed)
RNA 1: CACCCGUGCAAAAAUGCAGGGGUCUAAAACUGAGCGGAUAACCUCUCUAUGG
RNA 2: GGGAAUGGAUCCACAUCUACGAAUUCGCUCCAUAGAGAGGUUAUCCGCUCAUAGAGAUCGGAAGAGCACACGU
Molecule B4 gave a Kd with EsCas13d, nuclease-dead [3] of roughly 95 nM.

B5: target 1 MT 5'PFS GGA 3'PFS AGA (mixed)
RNA 1: CACCCGUGCAAAAAUGCAGGGGUCUAAAACUGAGCGGAUAACCUCUCUAUGG
RNA 2: GGGAAUGGAUCCACAUCUACGAAUUCGGACCAUAGAGAGGUUAUCCGCUCAAGAAGAUCGGAAGAGCACACGU
B5 gave a Kd with EsCas13d, nuclease-dead [3] of 20.5 ± 2.75 nM.

B6: target 1 MT 5'PFS UUG 3'PFS UGU (mixed)
RNA 1: CACCCGUGCAAAAAUGCAGGGGUCUAAAACUGAGCGGAUAACCUCUCUAUGG
RNA 2: GGGAAUGGAUCCACAUCUACGAAUUCUUGCCAUAGAGAGGUUAUCCGCUCAUGUAGAUCGGAAGAGCACACGU
As for B6, the Kd with EsCas13d, nuclease-dead [3] was 51 ± 11.5 nM.

B7: target 1 A18G (60-mer) (mixed)
RNA 1: CACCCGUGCAAAAAUGCAGGGGUCUAAAACUGAGCGGAUAACCUCUCUAUGG
RNA 2: CCACAUCUACGAAUUCGUACCAUGGAGAGGUUAUCCGCUCACCGAGAUCGGAAGAGCACA
As for B7, in the series with EsCas13d, nuclease-dead [2], the koff was 0.00063 s⁻¹ and the kon stood at 73000 M⁻¹ s⁻¹. The Kd with EsCas13d, nuclease-dead [1] was 8.7 nM.

B8: target 1 C22A (60-mer) (mixed)
RNA 1: CACCCGUGCAAAAAUGCAGGGGUCUAAAACUGAGCGGAUAACCUCUCUAUGG
RNA 2: CCACAUCUACGAAUUCGUAACAUAGAGAGGUUAUCCGCUCACCGAGAUCGGAAGAGCACA
Turning to B8, in the series with EsCas13d, nuclease-dead [2], the koff came out at 0.00066 s⁻¹ and the kon stood at 190000 M⁻¹ s⁻¹. This molecule returned a Kd with EsCas13d, nuclease-dead [1] of 3.6 nM.

B9: target 1 G5U (60-mer) (mixed)
RNA 1: CACCCGUGCAAAAAUGCAGGGGUCUAAAACUGAGCGGAUAACCUCUCUAUGG
RNA 2: CCACAUCUACGAAUUCGUACCAUAGAGAGGUUAUCCUCUCACCGAGAUCGGAAGAGCACA
In the case of B9, in the series with EsCas13d, nuclease-dead [2], the koff stood at 0.00042 s⁻¹ and the kon stood at 45000 M⁻¹ s⁻¹. Moreover, in the series with EsCas13d, nuclease-dead [1], the Kd was 9.3 nM.

B10: target 1 3'-GCU (60-mer) (mixed)
RNA 1: CACCCGUGCAAAAAUGCAGGGGUCUAAAACUGAGCGGAUAACCUCUCUAUGG
RNA 2: CCACAUCUACGAAUUCGUACCAUAGAGAGGUUAUCCGCUCAGCUAGAUCGGAAGAGCACA
As for B10, in the series with EsCas13d, nuclease-dead [1], the Kd is 4.2 nM.

B11: target 1 C7A (60-mer) (mixed)
RNA 1: CACCCGUGCAAAAAUGCAGGGGUCUAAAACUGAGCGGAUAACCUCUCUAUGG
RNA 2: CCACAUCUACGAAUUCGUACCAUAGAGAGGUUAUACGCUCACCGAGAUCGGAAGAGCACA
In the series with EsCas13d, nuclease-dead [2], B11 had a koff of 0.00045 s⁻¹ and a kon of 220000 M⁻¹ s⁻¹. In the series with EsCas13d, nuclease-dead [1], this molecule had a Kd of 2.1 nM.

B12: target 1 A20C (60-mer) (mixed)
RNA 1: CACCCGUGCAAAAAUGCAGGGGUCUAAAACUGAGCGGAUAACCUCUCUAUGG
RNA 2: CCACAUCUACGAAUUCGUACCCUAGAGAGGUUAUCCGCUCACCGAGAUCGGAAGAGCACA
On to B12, for which, in the series with EsCas13d, nuclease-dead [2], the koff was found to be 0.00063 s⁻¹ and the kon is 100000 M⁻¹ s⁻¹. In the series with EsCas13d, nuclease-dead [1], this molecule came in with a Kd of 6.3 nM.

B13: target 1 5'-UAA (60-mer) (mixed)
RNA 1: CACCCGUGCAAAAAUGCAGGGGUCUAAAACUGAGCGGAUAACCUCUCUAUGG
RNA 2: CCACAUCUACGAAUUCUAACCAUAGAGAGGUUAUCCGCUCACCGAGAUCGGAAGAGCACA
Consider B13, for which, in the series with EsCas13d, nuclease-dead [2], the koff amounted to 0.00061 s⁻¹ and the kon turned out to be 100000 M⁻¹ s⁻¹. The same molecule displayed an equilibrium dissociation constant (Kd) with EsCas13d, nuclease-dead [1] of 6 nM.

B14: target 1 3'-UGG (60-mer) (mixed)
RNA 1: CACCCGUGCAAAAAUGCAGGGGUCUAAAACUGAGCGGAUAACCUCUCUAUGG
RNA 2: CCACAUCUACGAAUUCGUACCAUAGAGAGGUUAUCCGCUCAUGGAGAUCGGAAGAGCACA
On to B14, for which, in the series with EsCas13d, nuclease-dead [2], the koff stood at 0.0006 s⁻¹ and the kon worked out at 70000 M⁻¹ s⁻¹. For the same molecule, the Kd with EsCas13d, nuclease-dead [1] amounted to 8.6 nM.

B15: target 1 U10G (60-mer) (mixed)
RNA 1: CACCCGUGCAAAAAUGCAGGGGUCUAAAACUGAGCGGAUAACCUCUCUAUGG
RNA 2: CCACAUCUACGAAUUCGUACCAUAGAGAGGUGAUCCGCUCACCGAGAUCGGAAGAGCACA
In the series with EsCas13d, nuclease-dead [2], B15 gave a koff of 0.00051 s⁻¹ and a kon of 130000 M⁻¹ s⁻¹. The affinity in the series with EsCas13d, nuclease-dead [1], expressed as Kd, was 3.8 nM.

B16: target 1 3'-GGU (60-mer) (mixed)
RNA 1: CACCCGUGCAAAAAUGCAGGGGUCUAAAACUGAGCGGAUAACCUCUCUAUGG
RNA 2: CCACAUCUACGAAUUCGUACCAUAGAGAGGUUAUCCGCUCAGGUAGAUCGGAAGAGCACA
B16: in the series with EsCas13d, nuclease-dead [2], the koff came to 0.00084 s⁻¹ and the kon came to 120000 M⁻¹ s⁻¹. This molecule returned a Kd with EsCas13d, nuclease-dead [1] of 7.1 nM.

B17: target 1 MT 5'PFS GCU 3'PFS UAA (mixed)
RNA 1: CACCCGUGCAAAAAUGCAGGGGUCUAAAACUGAGCGGAUAACCUCUCUAUGG
RNA 2: GGGAAUGGAUCCACAUCUACGAAUUCGCUCCAUAGAGAGGUUAUCCGCUCAUAAAGAUCGGAAGAGCACACGU
B17: in the series with EsCas13d, nuclease-dead [3], the dissociation constant (Kd) worked out at 49.5 ± 11 nM.

B18: target 1 G15A (60-mer) (mixed)
RNA 1: CACCCGUGCAAAAAUGCAGGGGUCUAAAACUGAGCGGAUAACCUCUCUAUGG
RNA 2: CCACAUCUACGAAUUCGUACCAUAGAAAGGUUAUCCGCUCACCGAGAUCGGAAGAGCACA
As to B18, in the series with EsCas13d, nuclease-dead [2], the koff came to 0.0006 s⁻¹ and the kon came to 180000 M⁻¹ s⁻¹. In the series with EsCas13d, nuclease-dead [1], this molecule registered a Kd of 3.4 nM.

B19: target 1 3'-UAA (60-mer) (mixed)
RNA 1: CACCCGUGCAAAAAUGCAGGGGUCUAAAACUGAGCGGAUAACCUCUCUAUGG
RNA 2: CCACAUCUACGAAUUCGUACCAUAGAGAGGUUAUCCGCUCAUAAAGAUCGGAAGAGCACA
For the molecule B19, in the series with EsCas13d, nuclease-dead [2], the koff is 0.00061 s⁻¹ and the kon worked out at 100000 M⁻¹ s⁻¹. For the same molecule, in the series with EsCas13d, nuclease-dead [1], the Kd worked out at 6 nM.

B20: target 1 3'-GUU (60-mer) (mixed)
RNA 1: CACCCGUGCAAAAAUGCAGGGGUCUAAAACUGAGCGGAUAACCUCUCUAUGG
RNA 2: CCACAUCUACGAAUUCGUACCAUAGAGAGGUUAUCCGCUCAGUUAGAUCGGAAGAGCACA
Turning to B20, in the series with EsCas13d, nuclease-dead [2], the koff is 0.0011 s⁻¹ and the kon came out at 250000 M⁻¹ s⁻¹. The Kd with EsCas13d, nuclease-dead [1] was found to be 4.4 nM.

B21: target 1 C4A (60-mer) (mixed)
RNA 1: CACCCGUGCAAAAAUGCAGGGGUCUAAAACUGAGCGGAUAACCUCUCUAUGG
RNA 2: CCACAUCUACGAAUUCGUACCAUAGAGAGGUUAUCCGAUCACCGAGAUCGGAAGAGCACA
As for B21, in the series with EsCas13d, nuclease-dead [2], the dissociation rate constant (koff) stood at 0.00035 s⁻¹ and the kon was found to be 220000 M⁻¹ s⁻¹. In the series with EsCas13d, nuclease-dead [1], binding was characterised by a dissociation constant (Kd) of 1.6 nM.

B22: crRNA-1 (MT) target (mixed)
RNA 1: CACCCGUGCAAAAUUGCAGGGGUCUAAAACUUUUGGUUGACCACAUCUUGAA
RNA 2: UUGGAAAACUUCAAGAUGUGGUCAACCAAAAUGCACAAGC
Regarding B22, in the series with EsCas13d, nuclease-dead [2], the dissociation rate constant (koff) came to 0.00038 s⁻¹ and the on-rate constant (kon) was 96000 M⁻¹ s⁻¹. In the series with EsCas13d, nuclease-dead [1], this molecule yielded a Kd of 4 nM.
